Several values for one entry are separate records, joined by “and”; a condition that tells them apart may be missing. Equal values may be shown once.
Tests used:
[1] = biological target: T1, recombinant human CD137 receptor protein (human, UniProt Q07011 24-186); experiment: ELISA, human CD137 protein coated; average, n=6
T1 construct: Coated on ELISA plates; also called recombinant human CD137 protein
Protocol: (§1) The human or cynomolgus monkey CD137 receptor protein was diluted in DPBS to 1 μg/mL, and then coated onto an ELISA plate (Corning, Catalog number: 9018, high binding) with a volume of 100 μL (0.1 μg) or 50 μL (0.05 μg) per well, and incubated at 4° C. overnight. The plate was decanted and washed once; assay diluent was added 200 μL/well. After a one-hour incubation at room temperature, the plate was washed with PBST one time. […] The plate was incubated one hour at room temperature and then washed three times with PBST. Goat anti-human IgG-H+L HRP conjugated at 1:100,000 dilution was added to the plate at 100 μL/well. The plate was then incubated one hour at room temperature followed by washing with PBST four times. The TMB substrate solution was added at 100 μL/well. The color was allowed to develop for 15 minutes, and was stopped with 100 μL/well 2N H₂SO₄. Absorbance at 450 nm and 620 nm was determined by a Tecan F200 Pro reader.
(§2) Graphpad 7.0, “[Agonist] vs. response—Variable slope (four parameters)” was used to plot the binding data and calculate binding EC₅₀ values.

[2] = biological target: T2, cynomolgus monkey CD137 on cells (cynomolgus monkey, UniProt A9YYE7 24-254); experiment: flow cytometry, cellular CD137; cynomolgus monkey CD137
T2 construct: whole, on cells; also called CHO-cynomolgus monkey CD137
Protocol: (§3) CHO cells over-expressing human or cynomolgus monkey CD137 and CHO parental cells were harvested by centrifugation at 1000 g for 3 minutes. The cells were resuspended in ice cold assay buffer at 2*10\hat{ }6/mL and transferred to 96-well V-bottom plate with 100 μL/well. […] The plate was mixed and incubated in the dark for 2 hours at 4° C. The cells were washed 3 times by centrifugation at 1000 g for 3 min and resuspended in ice cold assay buffer containing goat F(ab′)₂ anti-human IgG-Fc (PE), 100 μL/well. The plate was incubated in the dark for another 1 hour at 4° C. The cells were washed 2 times by centrifugation at 1000 g for 3 min and resuspended in ice cold assay buffer containing 2% PFA. The cells were then subjected to the flow cytometer immediately.
(§4) Mean fluorescence intensity (MFI) was calculated from the total cell population in the FCM experiments. Graphpad 7.0, “[Agonist] vs. response—Variable slope (four parameters)” was used to plot the binding MFI in dose response and to calculate FCM binding EC₅₀ values.

human CD137 on cells = biological target: T3, human CD137 on cells (human, UniProt Q07011 24-255); experiment: flow cytometry on CHO-human CD137 cells, PE anti-human IgG-Fc
T3 construct: whole, on cells; also called CHO-human CD137; CHO cells over-expressing human CD137
Protocol: as §3, §4

[3] = biological target: T4, recombinant cynomolgus monkey CD137 receptor protein (cynomolgus monkey, UniProt A9YYE7 24-186); experiment: ELISA, recombinant cynomolgus CD137 protein coated, antibody titrated
T4 construct: Coated on ELISA plates; also called Cyno CD137
Protocol: as §1, §2

Ly049 = biological target: T5, Ly049; experiment: ELISA, CD137 protein coated, clone 3712 titrated; flat curve, fit marked ~ (see non_binding)
T5 chain: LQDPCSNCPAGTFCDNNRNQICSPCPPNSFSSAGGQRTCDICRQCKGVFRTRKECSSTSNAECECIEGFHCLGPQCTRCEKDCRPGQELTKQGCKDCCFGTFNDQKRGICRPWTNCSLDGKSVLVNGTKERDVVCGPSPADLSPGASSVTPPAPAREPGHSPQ
Protocol: For the data shown in FIGS. 16C-D, chimeric CD137 receptor protein samples were diluted in DPBS to 5 μg/mL and then coated onto an ELISA plate (Corning, Catalog number: 9018, high binding) at 50 μL (0.25 μg) per well, and incubated at 4° C. overnight. The plate was decanted and washed once; assay diluent was added at 200 μL/well. After a 1-hour incubation at room temperature, the plate was washed with PBST one time. […] The plate was incubated 1 hour at room temperature and then washed three times with PBST. Goat anti-human IgG-H+L HRP-conjugated at 1:100,000 dilution or goat anti-mouse IgG (H+L) secondary antibody, HRP, 10 at 1:50,000 dilution was added to the plate at 100 μL/well. The plate was incubated 1 hour at room temperature followed by washing with PBST four times. The TMB substrate solution was added 100 μL/well. The color was permitted to develop for 15 minutes and then 100 μL/well 2N H2SO4 was added to terminate the reaction. Absorbance at 450 nm and 620 nm was determined by a Tecan F200 Pro reader.

[4] = biological target: T1, recombinant human CD137 receptor protein; experiment: ELISA, clone 3712-IgG1v coated, huCD137 titrated (EC50 is a concentration of the CD137 protein); full sigmoid, plateau about 2.2
Target sequence in this assay (Q07011 24-186 limits assumed): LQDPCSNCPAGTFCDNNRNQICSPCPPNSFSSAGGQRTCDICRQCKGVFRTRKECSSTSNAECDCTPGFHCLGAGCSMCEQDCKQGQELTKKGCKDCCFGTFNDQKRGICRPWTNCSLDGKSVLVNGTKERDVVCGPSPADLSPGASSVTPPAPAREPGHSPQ

Ly048 = biological target: T6, Ly048; experiment: ELISA, clone 3712-IgG1v coated, CD137 protein titrated (EC50 is a concentration of the CD137 protein); curve only begins to rise: about 0.63 at 100000 ng/mL, no plateau, the fitted EC50 lies beyond the range tested
T6 chain: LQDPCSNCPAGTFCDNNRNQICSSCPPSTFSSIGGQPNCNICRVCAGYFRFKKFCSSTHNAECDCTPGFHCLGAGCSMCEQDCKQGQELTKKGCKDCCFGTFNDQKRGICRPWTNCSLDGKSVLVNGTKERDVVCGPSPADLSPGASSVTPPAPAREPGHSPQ
Protocol: The plate was decanted and washed once; assay diluent was added 200 μL/well. After one-hour incubation at room temperature, the plate was washed with PBST one time. CD137 receptor human/mouse chimeras were diluted in assay diluent to 100 or 10 μg/mL, and then a 4-fold serial dilution in assay diluent for 11 points to final concentrations of 100000, 25000, 6250, 1562.5, 390.63, 97.66, 24.41, 6.10, 1.53, 0.38 and 0.095 ng/mL or 10000, 2500, 625, 156.25, 39.06, 9.77, 2.44, 0.61, 0.15, 0.038 and 0.0095 ng/mL. The diluted CD137 receptor was added to the assay plate, 50 μL/well, in duplicate. The plate was incubated one hour at room temperature and then washed three times with PBST. Goat anti-human IgG-H+L HRP conjugated at 1:100,000 20 dilution was added to the plate at 100 μL/well. The plate was then incubated one hour at room temperature followed by washing with PBST four times. The TMB substrate solution was added at 100 μL/well. The color was allowed to develop for 15 minutes, and was stopped with 100 μL/well 2N H2SO4. Absorbance at 450 nm and 620 nm was determined by a Tecan F200 Pro reader.

T3 sequence (Q07011 24-255): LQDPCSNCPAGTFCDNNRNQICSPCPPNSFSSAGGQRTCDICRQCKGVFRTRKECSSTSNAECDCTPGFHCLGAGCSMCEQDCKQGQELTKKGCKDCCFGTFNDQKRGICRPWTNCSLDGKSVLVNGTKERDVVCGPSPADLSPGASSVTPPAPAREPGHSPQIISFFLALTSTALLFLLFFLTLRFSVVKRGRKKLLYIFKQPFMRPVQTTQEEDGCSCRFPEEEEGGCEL
T2 sequence (A9YYE7 entry or part of it): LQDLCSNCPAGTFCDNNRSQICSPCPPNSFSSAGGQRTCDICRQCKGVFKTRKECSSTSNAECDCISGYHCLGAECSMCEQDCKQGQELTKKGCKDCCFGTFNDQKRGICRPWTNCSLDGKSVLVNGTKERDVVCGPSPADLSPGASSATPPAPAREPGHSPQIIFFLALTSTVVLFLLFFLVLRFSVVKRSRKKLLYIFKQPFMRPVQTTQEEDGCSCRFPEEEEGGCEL
T4 sequence (A9YYE7 entry or part of it): as the sequence (Q07011 24-186 limits assumed) above, with P4L, N19S, R50K, T66I, P67S, F69Y, G75E, V149A counted along it

B1: Clone 3712-IgG1v (IgG1v/kappa) (antibody)
heavy: QVQLVQSGAEVKKPGASVKVSCKASGYTFAGFEMHWVRQAPGQGLEWMGAIDPKTGGTDYNQKFKDRVTMTRDTSISTAYMELSRLRSDDTAVYYCARDLGYFDVWGQGTLVTVSSASTKGPSVFPLAPSSKSTSGGTAALGCLVKDYFPEPVTVSWNSGALTSGVHTFPAVLQSSGLYSLSSVVTVPSSSLGTQTYICNVNHKPSNTKVDKKVEPKSCDKTHTCPPCPAPELLGPSVFLFPPKPKDTLMISRTPEVTCVVVDVEHEDPEVKFNWYVDGVEVHNAKTKPREEQYNSTYRVVSVLTVLHQDWLNGKEYKCKVSNKALPAPIEKTISKAKGQPREPQVYTLPPSREEMTKNQVSLTCLVKGFYPSDIAVEWESNGQPENNYKTTPPVLDSDGSFFLYSKLTVDKSRWQQGNVFSCSVMHEALHNHYTQKSLSLSPGK
light: DIQMTQSPSSLSASVGDRVTITCRASQDIRSNLNWYQQKPGGAVKLLIYYTSRLHSGVPSRFSGSGSGTDYTLTISSLQPEDFATYFCQQSEKLPRTFGGGTKVEIRRTVAAPSVFIFPPSDEQLKSGTASVVCLLNNFYPREAKVQWKVDNALQSGNSQESVTEQDSKDSTYSLSSTLTLSKADYEKHKVYACEVTHQGLSSPVTKSFNRGEC
notes: copies: 2 + 2
**Q.** With B1 as the binder, how does the EC50 [1] read?
**A.** The EC50 was 0.37 nM and 0.0529 µg/mL.

**Q.** What about the EC50 [2] of the same binder?
**A.** Its EC50 is about 0.3 nM.

**Q.** And the “EC50 (read off the curve)” value (human CD137 on cells)?
**A.** The value was about 0.05 µg/mL.

**Q.** What about the “EC50 (read off the curve)” value [3] of the same binder?
**A.** Its value is about 0.05 µg/mL.

**Q.** What about the EC50 (Ly049) of the same binder?
**A.** Its EC50 is about 0.903 µg/mL.

**Q.** What about the EC50 [4] of the same binder?
**A.** The EC50 was 0.0669 µg/mL.

**Q.** What about the EC50 (Ly048) of the same binder?
**A.** The EC50 was 486 µg/mL.

From US20210246218A1 (LYVGEN BIOPHARMA SUZHOU, published 2021)
